For one substance, PLA fluorescence intensity in the actin-positive area 30 min after BBS, percent of untreated growth cones (% of untreated) results are on record in article PMC3994028.

The target of this assay is non-muscle myosin IIB (NM IIB) (rat (endogenous in hippocampal neurons of Sprague-Dawley rats and in PC12)) (UniProt Q9JLT0). Put plainly: proximity ligation; Duolink in situ PLA on fixed, permeabilised cultured hippocampal neurons (growth cones); primary antibodies against βPIX (or kalirin) and NM IIB, or βPIX and GIT; with or without 50 µM BBS for 15 or 30 min.
Chain of UniProt Q9JLT0 (Q9JLT0 whole entry): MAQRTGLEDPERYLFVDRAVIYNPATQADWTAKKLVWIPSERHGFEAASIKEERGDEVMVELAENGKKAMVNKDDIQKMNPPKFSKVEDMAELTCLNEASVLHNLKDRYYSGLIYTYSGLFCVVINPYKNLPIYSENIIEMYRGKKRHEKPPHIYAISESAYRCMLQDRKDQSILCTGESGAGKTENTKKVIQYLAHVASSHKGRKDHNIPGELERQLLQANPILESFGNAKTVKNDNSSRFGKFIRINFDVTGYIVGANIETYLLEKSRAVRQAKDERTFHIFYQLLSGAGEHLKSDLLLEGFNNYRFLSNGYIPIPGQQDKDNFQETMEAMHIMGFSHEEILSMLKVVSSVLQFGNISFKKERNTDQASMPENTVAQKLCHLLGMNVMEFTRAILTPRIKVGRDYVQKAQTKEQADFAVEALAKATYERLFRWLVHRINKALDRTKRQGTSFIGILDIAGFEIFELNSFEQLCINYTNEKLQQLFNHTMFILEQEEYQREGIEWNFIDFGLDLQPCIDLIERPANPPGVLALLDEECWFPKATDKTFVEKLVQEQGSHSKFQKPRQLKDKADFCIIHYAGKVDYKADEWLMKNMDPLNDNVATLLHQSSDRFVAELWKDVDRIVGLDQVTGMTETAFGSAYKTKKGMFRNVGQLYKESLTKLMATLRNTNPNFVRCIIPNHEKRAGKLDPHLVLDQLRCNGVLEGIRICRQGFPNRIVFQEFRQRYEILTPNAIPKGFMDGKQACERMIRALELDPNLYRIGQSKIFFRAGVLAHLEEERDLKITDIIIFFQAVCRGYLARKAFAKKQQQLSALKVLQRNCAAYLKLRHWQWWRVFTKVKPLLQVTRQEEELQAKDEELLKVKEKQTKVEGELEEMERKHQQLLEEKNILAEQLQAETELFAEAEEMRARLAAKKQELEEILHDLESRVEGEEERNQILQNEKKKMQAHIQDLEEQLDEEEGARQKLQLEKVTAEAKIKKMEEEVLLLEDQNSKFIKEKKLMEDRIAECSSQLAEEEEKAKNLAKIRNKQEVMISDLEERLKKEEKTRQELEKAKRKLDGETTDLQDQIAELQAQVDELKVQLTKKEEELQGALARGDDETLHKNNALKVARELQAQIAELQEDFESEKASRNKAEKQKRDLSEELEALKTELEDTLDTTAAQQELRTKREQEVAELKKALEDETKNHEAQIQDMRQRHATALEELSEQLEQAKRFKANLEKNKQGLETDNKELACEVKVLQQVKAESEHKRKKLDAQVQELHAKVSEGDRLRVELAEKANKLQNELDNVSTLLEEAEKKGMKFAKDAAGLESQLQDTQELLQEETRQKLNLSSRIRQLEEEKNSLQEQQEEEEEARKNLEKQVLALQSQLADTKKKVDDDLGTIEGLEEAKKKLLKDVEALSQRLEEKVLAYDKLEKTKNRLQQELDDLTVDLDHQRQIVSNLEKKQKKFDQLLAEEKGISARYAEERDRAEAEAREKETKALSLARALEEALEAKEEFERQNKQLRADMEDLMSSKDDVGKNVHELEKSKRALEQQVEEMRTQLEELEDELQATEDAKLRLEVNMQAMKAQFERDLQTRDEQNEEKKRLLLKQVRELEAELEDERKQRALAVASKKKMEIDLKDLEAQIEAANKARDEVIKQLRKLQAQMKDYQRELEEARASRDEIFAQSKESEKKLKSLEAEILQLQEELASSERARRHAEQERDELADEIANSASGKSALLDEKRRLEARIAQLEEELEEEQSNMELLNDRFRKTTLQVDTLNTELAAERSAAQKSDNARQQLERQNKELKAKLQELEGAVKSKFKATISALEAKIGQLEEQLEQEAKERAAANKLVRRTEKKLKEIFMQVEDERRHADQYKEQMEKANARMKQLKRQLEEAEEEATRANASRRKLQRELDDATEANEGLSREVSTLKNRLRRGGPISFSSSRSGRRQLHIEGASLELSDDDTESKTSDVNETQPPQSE

“βPIX (endogenous, hippocampal neurons) (from UniProt O55043 1-646) (natural protein)” registered a PLA fluorescence intensity in the actin-positive area 30 min after BBS, percent of untreated growth cones (% of untreated) of 51.
